We go through 15 molecules from US20130315910A1 (Xencor, published 2013).

T1: cynoFcγRIIb (Macaca fascicularis, UniProt A0A140HDP4)
T1 construct: extracellular region, C-terminal His- and GST-tag; also called cynomolgus monkey FcγRIIb
T1 sequence (receptor extracellular region): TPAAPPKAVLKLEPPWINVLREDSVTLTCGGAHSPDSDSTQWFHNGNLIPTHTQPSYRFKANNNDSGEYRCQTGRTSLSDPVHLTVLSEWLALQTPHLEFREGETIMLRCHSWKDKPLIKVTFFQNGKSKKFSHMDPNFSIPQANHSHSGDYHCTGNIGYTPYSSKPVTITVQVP

T2: mFcγRIIb (Mus musculus, UniProt P08101)
T2 construct: extracellular region, C-terminal His- and GST-tag; also called mouse FcγRII
T2 sequence (receptor extracellular region, looked up): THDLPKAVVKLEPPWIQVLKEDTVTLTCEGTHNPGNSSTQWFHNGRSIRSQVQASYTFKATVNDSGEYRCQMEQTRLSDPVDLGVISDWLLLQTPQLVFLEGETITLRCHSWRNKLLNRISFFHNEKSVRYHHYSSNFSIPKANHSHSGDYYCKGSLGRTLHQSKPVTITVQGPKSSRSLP

T3: human FcγRIIa (131H), His- and GST-tagged (human, UniProt P12318 34-217)
T3 construct: also called H131 FcγRIIa; HIIa; not shown: 6xHis and GST tags of the pTT5 vector
T3 sequence (looked up): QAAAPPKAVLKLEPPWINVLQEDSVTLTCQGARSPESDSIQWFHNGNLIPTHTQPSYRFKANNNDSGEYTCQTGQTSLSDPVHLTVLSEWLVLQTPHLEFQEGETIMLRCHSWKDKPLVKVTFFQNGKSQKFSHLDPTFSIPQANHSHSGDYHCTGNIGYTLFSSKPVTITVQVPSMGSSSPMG

T4: human FcγRIIb receptor protein (R&D Systems) (human, UniProt P31994 46-217)
T4 construct: Bought protein injected over captured antibody in Biacore; also called CD32b
T4 sequence (looked up): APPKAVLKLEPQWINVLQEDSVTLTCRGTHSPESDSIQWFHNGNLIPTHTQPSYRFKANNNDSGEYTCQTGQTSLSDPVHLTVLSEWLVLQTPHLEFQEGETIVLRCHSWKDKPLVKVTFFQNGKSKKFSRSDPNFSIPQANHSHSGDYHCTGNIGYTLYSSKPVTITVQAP

B1: H268D/L328F/I332E (antibody, human IgG1, kappa)
heavy: EVQLVESGGGLVKPGGSLKLSCAASGYTFTSYVMHWVRQAPGKGLEWIGYINPYNDGTKYNEKFQGRVTISSDKSISTAYMELSSLRSEDTAMYYCARGTYYYGTRVFDYWGQGTLVTVSSASTKGPSVFPLAPSSKSTSGGTAALGCLVKDYFPEPVTVSWNSGALTSGVHTFPAVLQSSGLYSLSSVVTVPSSSLGTQTYICNVNHKPSNTKVDKKVEPKSCDKTHTCPPCPAPELLGGPSVFLFPPKPKDTLMISRTPEVTCVVVDVSDEDPEVKFNWYVDGVEVHNAKTKPREEQYNSTYRVVSVLTVLHQDWLNGKEYKCKVSNKAFPAPEEKTISKAKGQPREPQVYTLPPSREEMTKNQVSLTCLVKGFYPSDIAVEWESNGQPENNYKTTPPVLDSDGSFFLYSKLTVDKSRWQQGNVFSCSVMHEALHNHYTQKSLSLSPGK
light: DIVMTQSPATLSLSPGERATLSCRSSKSLQNVNGNTYLYWFQQKPGQSPQLLIYRMSNLNSGVPDRFSGSGSGTEFTLTISSLEPEDFAVYYCMQHLEYPITFGAGTKLEIKRTVAAPSVFIFPPSDEQLKSGTASVVCLLNNFYPREAKVQWKVDNALQSGNSQESVTEQDSKDSTYSLSSTLTLSKADYEKHKVYACEVTHQGLSSPVTKSFNRGEC
notes: HuAM4G7 anti-CD19 IgG1 (m1) with these Fc substitutions, EU index; copies: 2 + 2
B2: H268D/K326D/L328Y (antibody, human IgG1, kappa)
heavy: B1 heavy with K330D, F332Y, E336I
light: B1 light
notes: as for B1
B3: S239D/A327D/L328Y (antibody, human IgG1, kappa)
heavy: B1 heavy with S243D, D272H, A331D, F332Y, E336I
light: B1 light
notes: as for B1
B4: K326W (antibody, human IgG1, kappa)
heavy: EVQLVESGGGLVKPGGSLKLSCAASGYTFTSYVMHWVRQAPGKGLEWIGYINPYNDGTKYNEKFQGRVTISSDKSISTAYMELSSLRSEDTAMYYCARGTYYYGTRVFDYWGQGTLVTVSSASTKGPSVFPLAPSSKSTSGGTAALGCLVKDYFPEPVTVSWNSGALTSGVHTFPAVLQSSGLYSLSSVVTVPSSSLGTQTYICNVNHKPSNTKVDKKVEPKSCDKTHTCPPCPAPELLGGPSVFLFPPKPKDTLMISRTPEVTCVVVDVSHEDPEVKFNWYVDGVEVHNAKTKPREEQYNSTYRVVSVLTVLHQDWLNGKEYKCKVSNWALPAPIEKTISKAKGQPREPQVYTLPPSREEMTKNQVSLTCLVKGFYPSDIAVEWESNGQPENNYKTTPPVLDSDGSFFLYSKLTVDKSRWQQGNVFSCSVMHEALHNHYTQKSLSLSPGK
light: B1 light
notes: HuAM4G7 anti-CD19 IgG1 (m1) with this Fc substitution, EU index; copies: 2 + 2
B5: S267A/L328Y/I332E (antibody, human IgG1, kappa)
heavy: B1 heavy with S271A, D272H, F332Y
light: B1 light
notes: as for B1
B6: H268D/L328Y/I332E (antibody, human IgG1, kappa)
heavy: B1 heavy with F332Y
light: B1 light
notes: as for B1
B7: A327D/L328Y/I332E (antibody, human IgG1, kappa)
heavy: B1 heavy with D272H, A331D, F332Y
light: B1 light
notes: as for B1
B8: A330S (antibody, human IgG1, kappa)
heavy: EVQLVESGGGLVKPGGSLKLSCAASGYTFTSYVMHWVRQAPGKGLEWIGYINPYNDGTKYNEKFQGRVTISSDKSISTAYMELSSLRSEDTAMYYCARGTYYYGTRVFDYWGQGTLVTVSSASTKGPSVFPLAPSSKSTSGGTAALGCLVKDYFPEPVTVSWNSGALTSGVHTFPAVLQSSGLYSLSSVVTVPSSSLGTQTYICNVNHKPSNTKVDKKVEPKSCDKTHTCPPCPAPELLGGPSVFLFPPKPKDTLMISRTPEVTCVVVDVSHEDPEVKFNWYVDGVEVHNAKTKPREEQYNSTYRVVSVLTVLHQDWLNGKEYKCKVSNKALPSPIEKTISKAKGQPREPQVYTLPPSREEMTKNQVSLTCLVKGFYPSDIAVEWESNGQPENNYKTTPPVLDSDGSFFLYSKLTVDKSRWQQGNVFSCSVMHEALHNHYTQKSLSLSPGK
light: B1 light
notes: as for B4
B9: K326E (antibody, human IgG1, kappa)
heavy: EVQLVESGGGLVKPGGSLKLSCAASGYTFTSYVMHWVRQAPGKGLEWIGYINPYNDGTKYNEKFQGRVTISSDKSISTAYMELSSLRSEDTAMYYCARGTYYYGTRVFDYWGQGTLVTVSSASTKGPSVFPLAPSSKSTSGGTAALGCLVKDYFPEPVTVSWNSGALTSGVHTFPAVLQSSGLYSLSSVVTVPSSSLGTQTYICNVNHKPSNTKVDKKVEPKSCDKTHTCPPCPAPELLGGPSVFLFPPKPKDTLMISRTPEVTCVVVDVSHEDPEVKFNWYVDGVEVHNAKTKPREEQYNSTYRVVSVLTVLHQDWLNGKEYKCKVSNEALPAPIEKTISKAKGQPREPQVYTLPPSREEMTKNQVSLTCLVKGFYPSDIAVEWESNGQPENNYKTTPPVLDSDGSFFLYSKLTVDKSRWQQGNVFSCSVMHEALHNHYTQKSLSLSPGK
light: B1 light
notes: as for B4
B10: K326A (antibody, human IgG1, kappa)
heavy: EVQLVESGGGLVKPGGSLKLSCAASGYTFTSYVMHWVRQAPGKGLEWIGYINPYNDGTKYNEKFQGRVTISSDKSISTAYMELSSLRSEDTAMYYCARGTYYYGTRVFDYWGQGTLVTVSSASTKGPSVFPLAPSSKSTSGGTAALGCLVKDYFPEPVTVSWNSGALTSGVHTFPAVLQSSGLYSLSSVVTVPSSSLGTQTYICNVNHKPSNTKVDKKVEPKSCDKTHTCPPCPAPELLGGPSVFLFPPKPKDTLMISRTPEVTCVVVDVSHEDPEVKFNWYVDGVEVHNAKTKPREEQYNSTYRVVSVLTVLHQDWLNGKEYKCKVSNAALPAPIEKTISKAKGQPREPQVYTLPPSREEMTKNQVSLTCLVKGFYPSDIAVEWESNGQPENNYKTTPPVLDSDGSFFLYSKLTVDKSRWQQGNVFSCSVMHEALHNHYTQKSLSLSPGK
light: B1 light
notes: as for B4
B11: H268E/L328Y/I332E (antibody, human IgG1, kappa)
heavy: B1 heavy with D272E, F332Y
light: B1 light
notes: as for B1
B12: S267A/H268D/L328Y (antibody, human IgG1, kappa)
heavy: B1 heavy with S271A, F332Y, E336I
light: B1 light
notes: as for B1
B13: A330K (antibody, human IgG1, kappa)
heavy: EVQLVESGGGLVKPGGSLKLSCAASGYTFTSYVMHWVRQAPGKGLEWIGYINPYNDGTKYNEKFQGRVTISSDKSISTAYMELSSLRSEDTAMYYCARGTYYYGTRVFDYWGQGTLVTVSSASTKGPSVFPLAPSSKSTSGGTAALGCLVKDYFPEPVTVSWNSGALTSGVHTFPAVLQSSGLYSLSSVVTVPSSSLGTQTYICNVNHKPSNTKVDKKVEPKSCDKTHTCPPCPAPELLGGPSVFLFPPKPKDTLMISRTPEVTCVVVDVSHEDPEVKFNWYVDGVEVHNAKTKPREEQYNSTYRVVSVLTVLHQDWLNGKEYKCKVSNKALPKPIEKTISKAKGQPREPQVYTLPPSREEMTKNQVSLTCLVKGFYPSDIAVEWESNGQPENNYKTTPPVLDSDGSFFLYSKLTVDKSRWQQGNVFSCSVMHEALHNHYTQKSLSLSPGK
light: B1 light
notes: as for B4
B14: K326D/L328Y/I332E (antibody, human IgG1, kappa)
heavy: B1 heavy with D272H, K330D, F332Y
light: B1 light
notes: as for B1
B15: S239D/S267E/H268E (antibody, human IgG1, kappa)
heavy: B1 heavy with S243D, S271E, D272E, F332L, E336I
light: B1 light
notes: as for B1

Where a chain is given by its changes, count along the chain named. Names may count otherwise.

The target in one assay is T1, cynoFcγRIIb. Put plainly: SPR. The procedure:
(§1) Variants were screened for receptor affinity using Biacore™ technology, also referred to as Biacore herein, a surface plasmon resonance (SPR) based technology for studying biomolecular interactions in real time. SPR measurements were performed using a Biacore 3000 instrument (Biacore, Piscataway, N.J.). A protein A/G (Pierce Biotechnology) CM5 biosensor chip (Biacore) was generated using a standard primary amine coupling protocol. All measurements were performed using HBS-EP buffer (10 mM HEPES pH 7.4, 0.15 M NaCl, 3 mM EDTA, 0.005% vol/vol surfactant P20, Biacore). Antibodies at 20 nM or 50 nM in HBS-EP buffer were immobilized on the protein A/G surface and FcγRs were injected. After each cycle, the surface was regenerated by injecting glycine buffer (10 mM, pH 1.5). Data were processed by zeroing time and response before the injection of FcγR and by subtracting appropriate nonspecific signals (response of reference channel and injection of running buffer). Kinetic analyses were performed by global fitting of binding data with a 1:1 Langmuir binding model using BIAevaluation software (Biacore).
(§2) Variant antibodies were tested for their affinity to mouse or cynologous monkey FcγRs using Biacore SPR as described above. Specifically, antibodies were first immobilized on a protein A/G chip to high density, and then followed by injections of the extracellular domain of the mouse or cynologous monkey FcγR of interest. Both association and dissociation phases were tracked in real time using the Biacore technology.
Background: In SPR one partner is held on a chip, and binding of the other changes the refractive index at the surface.
B1: the “Fold vs WT IgG1 (Kd)” value worked out at 4.88 fold.

On to B2, for which the “Fold vs WT IgG1 (Kd)” value was 9.38 fold.

Take B3: the “Fold vs WT IgG1 (Kd)” value was found to be 1.31 fold.

B4: the “Fold vs WT IgG1 (Kd)” value worked out at 0.078 fold.

Regarding B5, the “Fold vs WT IgG1 (Kd)” value was found to be 3.65 fold.

For B6, the “Fold vs WT IgG1 (Kd)” value came to 4.08 fold.

For the molecule B7, the “Fold vs WT IgG1 (Kd)” value was 1.02 fold.

Regarding B8, the “Fold vs WT IgG1 (Kd)” value was 0.255 fold.

Take B9: the “Fold vs WT IgG1 (Kd)” value was 1.03 fold.

For the molecule B10, the “Fold vs WT IgG1 (Kd)” value is 1.36 fold.

Consider B11, for which the “Fold vs WT IgG1 (Kd)” value came out at 4.16 fold.

For the molecule B12, the “Fold vs WT IgG1 (Kd)” value was 3.26 fold.

In the case of B13, the “Fold vs WT IgG1 (Kd)” value came out at 2.02 fold.

As for B14, the “Fold vs WT IgG1 (Kd)” value is 4.78 fold.

Another assay deals with T2, mFcγRIIb. Put plainly: SPR. Here is the method:
as §1, §2
B1: the “Fold vs WT IgG1 (Kd)” value amounted to 1.48 fold.

Turning to B2, the “Fold vs WT IgG1 (Kd)” value stood at 19.4 fold.

As for B3, the “Fold vs WT IgG1 (Kd)” value was found to be 45.3 fold.

B4: the “Fold vs WT IgG1 (Kd)” value amounted to 0.429 fold.

As for B5, the “Fold vs WT IgG1 (Kd)” value stood at 2.63 fold.

For the molecule B6, the “Fold vs WT IgG1 (Kd)” value came out at 1.28 fold.

Regarding B7, the “Fold vs WT IgG1 (Kd)” value is 1.24 fold.

For B8, the “Fold vs WT IgG1 (Kd)” value amounted to 0.054 fold.

Turning to B9, the “Fold vs WT IgG1 (Kd)” value came to 0.605 fold.

Regarding B10, the “Fold vs WT IgG1 (Kd)” value turned out to be 0.164 fold.

As for B11, the “Fold vs WT IgG1 (Kd)” value is 1.5 fold.

As to B12, the “Fold vs WT IgG1 (Kd)” value turned out to be 32.4 fold.

Take B13: the “Fold vs WT IgG1 (Kd)” value turned out to be 0.296 fold.

Consider B14, for which the “Fold vs WT IgG1 (Kd)” value worked out at 1.87 fold.

The target of another assay is T3, human FcγRIIa (131H), His- and …. Put plainly: SPR. Here is the method: as §1
One may read the Kd as the free concentration of one partner at which half of the binding sites on the other are occupied at equilibrium, for simple one-to-one binding. Low values mean higher affinity, high ones lower affinity. Take B15: the Kd is 817 nM.

In a further assay the target is T4, human FcγRIIb receptor protein (R&D …). Put plainly: SPR. Here is the method: as §1
For B1, the “Fold vs WT IgG1” value amounted to 12.3 fold and the dissociation constant Kd was 119 nM.

Take B2: the “Fold vs WT IgG1” value was determined as 18.6 fold and binding was put at a Kd of 78.9 nM.

Regarding B15, the Kd was found to be 6.91 nM.

B3: the “Fold vs WT IgG1” value turned out to be 11.9 fold and the affinity, expressed as Kd, was 123 nM.

As to B4, the “Fold vs WT IgG1” value amounted to 3.04 fold and the dissociation constant Kd was 483 nM.

With B5, the “Fold vs WT IgG1” value was 13.5 fold and the Kd worked out at 109 nM.

For B6, the “Fold vs WT IgG1” value worked out at 4.89 fold and the Kd was determined as 300 nM.

With B7, the “Fold vs WT IgG1” value turned out to be 2.31 fold and the Kd was 636 nM.

Turning to B8, the “Fold vs WT IgG1” value was 0.0635 fold and the affinity, expressed as Kd, was 23100 nM.

With B9, the “Fold vs WT IgG1” value was 6.09 fold and binding was characterised by a dissociation constant (Kd) of 241 nM.

As to B10, the binding result is listed as “no binding”.

As for B11, the “Fold vs WT IgG1” value is 8.53 fold and the Kd was found to be 172 nM.

For the molecule B12, the “Fold vs WT IgG1” value came out at 10.7 fold and the Kd amounted to 137 nM.

As to B13, the “Fold vs WT IgG1” value came out at 1.55 fold and the Kd was 947 nM.

For the molecule B14, the “Fold vs WT IgG1” value worked out at 2.65 fold and the affinity, expressed as Kd, was 553 nM.

The target of the next assay is T5, human FcγRI receptor protein (R&D Systems) (human, UniProt P12314 16-288).
T5 construct: also called soluble FcγRI; solFcγRI
T5 sequence (P12314 16-288 limits assumed): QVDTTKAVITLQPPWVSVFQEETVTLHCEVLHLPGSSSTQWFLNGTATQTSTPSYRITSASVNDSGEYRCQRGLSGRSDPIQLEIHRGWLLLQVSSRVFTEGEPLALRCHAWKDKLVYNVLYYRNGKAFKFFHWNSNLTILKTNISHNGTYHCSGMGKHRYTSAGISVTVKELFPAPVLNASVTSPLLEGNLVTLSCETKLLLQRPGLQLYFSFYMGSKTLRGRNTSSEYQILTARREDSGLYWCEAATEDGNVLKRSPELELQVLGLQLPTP
Put plainly: SPR. Here is the method: as §1
B15 registered a Kd of 0.326 nM.
